Assays:
[1] = target: T1, cGMP-dependent protein kinase II (PKGII), recombinant (UniProt Q13237 1-762); assay: kinase inhibition assay (Ki from enzyme kinetics); purified recombinant kinases with multiple concentrations of DT-2; saturating peptide substrate …; PKG isoforms activated with 1 μM cGMP; PKC activated with 50 μg/μL phospholipids and 100 ng/mL 12-O-tetradecanoylphorbol-13-acetate; conditions: both partners purified
T1 construct: cGMP-dependent protein kinase II; also called cGK2; source: insect cell cultures, Bacmid baculovirus expression system, purified to apparent homogeneity
T1 sequence (looked up): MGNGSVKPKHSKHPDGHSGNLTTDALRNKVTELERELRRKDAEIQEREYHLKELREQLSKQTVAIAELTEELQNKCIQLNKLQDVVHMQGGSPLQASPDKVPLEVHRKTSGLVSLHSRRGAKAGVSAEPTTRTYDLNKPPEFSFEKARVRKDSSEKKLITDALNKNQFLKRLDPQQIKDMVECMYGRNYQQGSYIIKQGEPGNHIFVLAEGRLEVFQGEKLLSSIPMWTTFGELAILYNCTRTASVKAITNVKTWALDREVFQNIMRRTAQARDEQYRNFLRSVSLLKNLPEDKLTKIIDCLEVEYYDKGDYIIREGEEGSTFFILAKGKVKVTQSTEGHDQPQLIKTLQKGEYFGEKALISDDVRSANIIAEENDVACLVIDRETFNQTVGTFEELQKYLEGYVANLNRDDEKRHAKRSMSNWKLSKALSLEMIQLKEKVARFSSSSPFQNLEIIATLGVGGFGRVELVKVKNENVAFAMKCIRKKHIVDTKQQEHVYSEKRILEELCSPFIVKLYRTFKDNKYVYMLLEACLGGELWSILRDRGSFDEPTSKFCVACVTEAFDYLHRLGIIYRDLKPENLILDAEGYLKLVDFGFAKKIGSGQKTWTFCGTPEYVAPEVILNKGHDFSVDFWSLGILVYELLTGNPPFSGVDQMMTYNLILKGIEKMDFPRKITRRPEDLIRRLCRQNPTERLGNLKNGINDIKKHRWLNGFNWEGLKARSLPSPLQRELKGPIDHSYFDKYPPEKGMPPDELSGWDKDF

[2] = target: T2, Recombinant protein kinase Cα (PKCα, human) (human, UniProt P17252 1-672); assay: as above; conditions: both partners purified
T2 construct: protein kinase C alpha, human, recombinant; source: bought: Calbiochem

Q: For YGRKKRRQRRRPPLRKKKKKH (also called peptide DT-2) [DT-2], which Ki [1] is on record?
A: Its Ki is 9.1 µM.

Q: And the Ki [2]?
A: Its Ki is 0.0266 µM.

From article PMC2731736, “cGMP-dependent protein kinase Iα associates with the antidepressant-sensitive serotonin transporter and dictates rapid modulation of serotonin uptake” (Molecular Brain, 2009)
